Reference: patent US20230192860A1 (Bristol-Myers Squibb, published 2023)
Residue numbers refer to the chain shown, from its start. Values belong to the binder of their own block, whether it stands above or below them.

Assays:
hVISTA-ECD 6-His tag [1] = target: T1, hVISTA-ECD 6-His tag (human, UniProt Q9H7M9 33-193); assay: SPR; kd at pH 6.45 over kd at pH 6.0 (head prints 7.4)
T1 construct: also called monovalent hVISTA-ECD; human VISTA
Experimental: (§1) Further binding kinetic experiments were performed at various pHs on VISTA antibodies described herein by SPR as generally described in Example 9 above. Antibodies were normalized to 50 nM concentration in PBST pH 7.4 and captured on a Protein A CM5 chip (ID 4931) by injecting for 45 seconds at a 5 µL/min flow rate. An 8-point human VISTA titration ([…]) was prepared in PBST at pH 7.4, 6.9, 6.45, and 6.0. Titrations were injected over the captured antibodies for 180 seconds at 30 µL/min. Sensorgrams were fit to a 1:1 binding model in T200 evaluation software and the kinetic constants were reported.
(§2) Each table reports the data at one of the four tested pHs (7.4, 6.9, 6.45, and 6.0, respectively). The 8-point hVISTA titration used in these assays was chosen to provide increased confidence in kinetic values reported at neutral pH conditions. A relatively stringent cutoff for non-binding was applied in this assay. Certain progeny of P1-061029 antibody (P1-068757, ‘759, ‘765, ‘771, and ‘775) show no binding to hVISTA at micromolar concentrations at pH 7.4, while ‘761 and ‘767 show no binding to hVISTA at 100 nM at pH 7.4 but do show binding to hVISTA at micromolar concentrations.

hVISTA-ECD 6-His tag [2] = target: T1, hVISTA-ECD 6-His tag; assay: SPR; KD at pH 6.9 over KD at pH 6.0 (head prints 7.4)
Experimental: as §1, §2

hVISTA-ECD 6-His tag [3] = target: T1, hVISTA-ECD 6-His tag; assay: SPR; KD at pH 6.45 over KD at pH 6.0 (head prints 7.4)
hVISTA-ECD 6-His tag [4] = target: T1, hVISTA-ECD 6-His tag; assay: SPR, Ab on Protein A, hVISTA analyte, pH 6.9
Experimental: as §1, §2

hVISTA-ECD 6-His tag [5] = target: T1, hVISTA-ECD 6-His tag; assay: SPR; kd at pH 6.9 over kd at pH 6.0 (head prints 7.4)
Experimental: as §1, §2

hVISTA-ECD 6-His tag [6] = target: T1, hVISTA-ECD 6-His tag; assay: SPR, Ab on Protein A, hVISTA analyte, pH 6.0
hVISTA-ECD 6-His tag [7] = target: T1, hVISTA-ECD 6-His tag; assay: SPR, Ab on Protein A, hVISTA analyte, pH 6.45

T1 sequence (Q9H7M9 other isoform, or with tags, fused parts or gaps limits assumed): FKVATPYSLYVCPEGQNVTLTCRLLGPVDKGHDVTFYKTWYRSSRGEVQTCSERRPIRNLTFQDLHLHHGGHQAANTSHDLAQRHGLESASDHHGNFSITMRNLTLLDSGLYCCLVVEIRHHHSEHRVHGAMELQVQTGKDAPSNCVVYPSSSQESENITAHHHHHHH

- 7.4 kd/ 6.0 kd (hVISTA-ECD 6-His tag [1]): 2.1
- 7.4 KD/ 6.0 KD (hVISTA-ECD 6-His tag [2]): 35.1
- 7.4 KD/ 6.0 KD (hVISTA-ECD 6-His tag [3]): 5.4
- Kd (hVISTA-ECD 6-His tag [4]): 230 nM
- koff (hVISTA-ECD 6-His tag [4]): 0.0093 s⁻¹
- kon (hVISTA-ECD 6-His tag [4]): 41000 M⁻¹ s⁻¹
- 7.4 kd/ 6.0 kd (hVISTA-ECD 6-His tag [5]): 4.8
- Kd (hVISTA-ECD 6-His tag [6]): 6.5 nM
- koff (hVISTA-ECD 6-His tag [6]): 0.0019 s⁻¹
- kon (hVISTA-ECD 6-His tag [6]): 300000 M⁻¹ s⁻¹
- Kd (hVISTA-ECD 6-His tag [7]): 35 nM
- koff (hVISTA-ECD 6-His tag [7]): 0.004 s⁻¹
- kon (hVISTA-ECD 6-His tag [7]): 120000 M⁻¹ s⁻¹
B3: P1-070916 (P1-068767_D52N_E55A) (antibody, human IgG1, kappa, V domains shown)
VH: EVQLVESGGGLVQPGKSLRLSCAASGFTLEDYAMHWVRQAPGKGLEWVSGINWNSANIGYADSVKGRFTISRDNAKNSLYLQMNSLRTEDTALYYCAKVPGYSGGWIDAEDDWGQGTMVTVSS
VL: not shown
notes: also called P1-070916-6

- 7.4 kd/ 6.0 kd (hVISTA-ECD 6-His tag [1]): 2
- 7.4 KD/ 6.0 KD (hVISTA-ECD 6-His tag [2]): 21.1
- 7.4 KD/ 6.0 KD (hVISTA-ECD 6-His tag [3]): 4.3
- Kd (hVISTA-ECD 6-His tag [4]): 230 nM
- koff (hVISTA-ECD 6-His tag [4]): 0.011 s⁻¹
- kon (hVISTA-ECD 6-His tag [4]): 48000 M⁻¹ s⁻¹
- 7.4 kd/ 6.0 kd (hVISTA-ECD 6-His tag [5]): 4.4
- Kd (hVISTA-ECD 6-His tag [6]): 11 nM
- koff (hVISTA-ECD 6-His tag [6]): 0.0024 s⁻¹
- kon (hVISTA-ECD 6-His tag [6]): 230000 M⁻¹ s⁻¹
- Kd (hVISTA-ECD 6-His tag [7]): 46 nM
- koff (hVISTA-ECD 6-His tag [7]): 0.0049 s⁻¹
- kon (hVISTA-ECD 6-His tag [7]): 110000 M⁻¹ s⁻¹
B5: P1-070914 (P1-068767_E30D_D52N) (antibody, human IgG1, kappa, V domains shown)
VH: B3 VH with E30D, A56E
VL: not shown
notes: also called P1-070914-3

- 7.4 kd/ 6.0 kd (hVISTA-ECD 6-His tag [1]): 1.7
- 7.4 KD/ 6.0 KD (hVISTA-ECD 6-His tag [2]): 45.9
- 7.4 KD/ 6.0 KD (hVISTA-ECD 6-His tag [3]): 4.4
- Kd (hVISTA-ECD 6-His tag [4]): 790 nM
- koff (hVISTA-ECD 6-His tag [4]): 0.014 s⁻¹
- kon (hVISTA-ECD 6-His tag [4]): 18000 M⁻¹ s⁻¹
- 7.4 kd/ 6.0 kd (hVISTA-ECD 6-His tag [5]): 3.4
- Kd (hVISTA-ECD 6-His tag [6]): 17 nM
- koff (hVISTA-ECD 6-His tag [6]): 0.004 s⁻¹
- kon (hVISTA-ECD 6-His tag [6]): 230000 M⁻¹ s⁻¹
- Kd (hVISTA-ECD 6-His tag [7]): 76 nM
- koff (hVISTA-ECD 6-His tag [7]): 0.007 s⁻¹
- kon (hVISTA-ECD 6-His tag [7]): 93000 M⁻¹ s⁻¹
B7: P1-070922 (P1-068767_E30D_E55A) (antibody, human IgG1, kappa, V domains shown)
VH: B3 VH with E30D, N52D
VL: not shown
notes: also called P1-070922-3

Second part, the binder before the results:

B1: P1-070900 (P1-068761_E56N_H100G) (antibody, human IgG1, kappa, V domains shown)
VH: B3 VH with Y32E, A56E, D112V
VL: not shown
notes: also called P1-070900-3
- 7.4 kd/ 6.0 kd (hVISTA-ECD 6-His tag [1]): 7.1
- 7.4 KD/ 6.0 KD (hVISTA-ECD 6-His tag [2]): 222
- 7.4 KD/ 6.0 KD (hVISTA-ECD 6-His tag [3]): 8
- Kd (hVISTA-ECD 6-His tag [4]): 3700 nM
- koff (hVISTA-ECD 6-His tag [4]): 0.031 s⁻¹
- kon (hVISTA-ECD 6-His tag [4]): 8500 M⁻¹ s⁻¹
- 7.4 kd/ 6.0 kd (hVISTA-ECD 6-His tag [5]): 3.7
- Kd (hVISTA-ECD 6-His tag [6]): 17 nM
- koff (hVISTA-ECD 6-His tag [6]): 0.0084 s⁻¹
- kon (hVISTA-ECD 6-His tag [6]): 500000 M⁻¹ s⁻¹
- Kd (hVISTA-ECD 6-His tag [7]): 130 nM
- koff (hVISTA-ECD 6-His tag [7]): 0.06 s⁻¹
- kon (hVISTA-ECD 6-His tag [7]): 450000 M⁻¹ s⁻¹

B2: P1-070890 (P1-068761_E30D_E55A) (antibody, human IgG1, kappa, V domains shown)
VH: B3 VH with E30D, Y32E, N57E, G104H, D112V
VL: not shown
notes: also called P1-070890-3
- 7.4 kd/ 6.0 kd (hVISTA-ECD 6-His tag [1]): 3.9
- 7.4 KD/ 6.0 KD (hVISTA-ECD 6-His tag [2]): 211
- 7.4 KD/ 6.0 KD (hVISTA-ECD 6-His tag [3]): 6.3
- Kd (hVISTA-ECD 6-His tag [4]): 4400 nM
- koff (hVISTA-ECD 6-His tag [4]): 0.04 s⁻¹
- kon (hVISTA-ECD 6-His tag [4]): 9000 M⁻¹ s⁻¹
- 7.4 kd/ 6.0 kd (hVISTA-ECD 6-His tag [5]): 4.9
- Kd (hVISTA-ECD 6-His tag [6]): 21 nM
- koff (hVISTA-ECD 6-His tag [6]): 0.0081 s⁻¹
- kon (hVISTA-ECD 6-His tag [6]): 390000 M⁻¹ s⁻¹
- Kd (hVISTA-ECD 6-His tag [7]): 130 nM
- koff (hVISTA-ECD 6-His tag [7]): 0.032 s⁻¹
- kon (hVISTA-ECD 6-His tag [7]): 240000 M⁻¹ s⁻¹

B4: P1-070864 (P1-068761_E30D) (antibody, human IgG1, kappa, V domains shown)
VH: B3 VH with E30D, Y32E, A56E, N57E, G104H, D112V
VL: not shown
notes: also called P1-070864-3
- 7.4 kd/ 6.0 kd (hVISTA-ECD 6-His tag [1]): 6.8
- 7.4 KD/ 6.0 KD (hVISTA-ECD 6-His tag [2]): 523
- 7.4 KD/ 6.0 KD (hVISTA-ECD 6-His tag [3]): 7.4
- Kd (hVISTA-ECD 6-His tag [4]): 8100 nM
- koff (hVISTA-ECD 6-His tag [4]): 0.034 s⁻¹
- kon (hVISTA-ECD 6-His tag [4]): 4200 M⁻¹ s⁻¹
- 7.4 kd/ 6.0 kd (hVISTA-ECD 6-His tag [5]): 4.9
- Kd (hVISTA-ECD 6-His tag [6]): 15 nM
- koff (hVISTA-ECD 6-His tag [6]): 0.0068 s⁻¹
- kon (hVISTA-ECD 6-His tag [6]): 440000 M⁻¹ s⁻¹
- Kd (hVISTA-ECD 6-His tag [7]): 110 nM
- koff (hVISTA-ECD 6-His tag [7]): 0.046 s⁻¹
- kon (hVISTA-ECD 6-His tag [7]): 410000 M⁻¹ s⁻¹

B6: P1-070906 (P1-068767_D52N) (antibody, human IgG1, kappa, V domains shown)
VH: B3 VH with A56E
VL: not shown
notes: also called P1-070906-6
- 7.4 kd/ 6.0 kd (hVISTA-ECD 6-His tag [1]): 2.1
- 7.4 KD/ 6.0 KD (hVISTA-ECD 6-His tag [2]): 36.5
- 7.4 KD/ 6.0 KD (hVISTA-ECD 6-His tag [3]): 5.1
- Kd (hVISTA-ECD 6-His tag [4]): 220 nM
- koff (hVISTA-ECD 6-His tag [4]): 0.0084 s⁻¹
- kon (hVISTA-ECD 6-His tag [4]): 38000 M⁻¹ s⁻¹
- 7.4 kd/ 6.0 kd (hVISTA-ECD 6-His tag [5]): 4.4
- Kd (hVISTA-ECD 6-His tag [6]): 6 nM
- koff (hVISTA-ECD 6-His tag [6]): 0.0019 s⁻¹
- kon (hVISTA-ECD 6-His tag [6]): 310000 M⁻¹ s⁻¹
- Kd (hVISTA-ECD 6-His tag [7]): 31 nM
- koff (hVISTA-ECD 6-His tag [7]): 0.0039 s⁻¹
- kon (hVISTA-ECD 6-His tag [7]): 130000 M⁻¹ s⁻¹

B8: P1-070870 (P1-068761_E56N) (antibody, human IgG1, kappa, V domains shown)
VH: B3 VH with Y32E, A56E, G104H, D112V
VL: not shown
notes: also called P1-070870-3
- 7.4 kd/ 6.0 kd (hVISTA-ECD 6-His tag [1]): 1.9
- 7.4 KD/ 6.0 KD (hVISTA-ECD 6-His tag [2]): 316
- 7.4 KD/ 6.0 KD (hVISTA-ECD 6-His tag [3]): 4.6
- Kd (hVISTA-ECD 6-His tag [4]): 10000 nM
- koff (hVISTA-ECD 6-His tag [4]): 0.049 s⁻¹
- kon (hVISTA-ECD 6-His tag [4]): 4900 M⁻¹ s⁻¹
- 7.4 kd/ 6.0 kd (hVISTA-ECD 6-His tag [5]): 7.9
- Kd (hVISTA-ECD 6-His tag [6]): 32 nM
- koff (hVISTA-ECD 6-His tag [6]): 0.0063 s⁻¹
- kon (hVISTA-ECD 6-His tag [6]): 200000 M⁻¹ s⁻¹
- Kd (hVISTA-ECD 6-His tag [7]): 150 nM
- koff (hVISTA-ECD 6-His tag [7]): 0.012 s⁻¹
- kon (hVISTA-ECD 6-His tag [7]): 80000 M⁻¹ s⁻¹
